Assays:
Assay in all cases: SPR
[1] = biological target: NGM438, humanized IgG1 effector-less monoclonal antibody against LAIR1
[2] = biological target: LAIR1 from rat (Rattus norvegicus, UniProt P0C1X9)
[3] = biological target: recombinant human LAIR1-his (Homo sapiens, UniProt Q6GTX8)
[4] = biological target: human LAIR2 (Homo sapiens, UniProt Q6ISS4)
[5] = biological target: LAIR1 from mouse (Mus musculus, UniProt Q8BG84)
Chain of LAIR1 from mouse (Q8BG84 22-263): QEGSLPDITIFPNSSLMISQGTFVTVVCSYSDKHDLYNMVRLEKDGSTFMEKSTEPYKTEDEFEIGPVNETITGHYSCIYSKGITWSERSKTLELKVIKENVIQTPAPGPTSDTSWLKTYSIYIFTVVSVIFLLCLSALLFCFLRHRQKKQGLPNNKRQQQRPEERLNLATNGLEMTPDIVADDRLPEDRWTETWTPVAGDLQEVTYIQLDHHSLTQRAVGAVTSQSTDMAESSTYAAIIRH

Chain of recombinant human LAIR1-his (Q6GTX8 22-287): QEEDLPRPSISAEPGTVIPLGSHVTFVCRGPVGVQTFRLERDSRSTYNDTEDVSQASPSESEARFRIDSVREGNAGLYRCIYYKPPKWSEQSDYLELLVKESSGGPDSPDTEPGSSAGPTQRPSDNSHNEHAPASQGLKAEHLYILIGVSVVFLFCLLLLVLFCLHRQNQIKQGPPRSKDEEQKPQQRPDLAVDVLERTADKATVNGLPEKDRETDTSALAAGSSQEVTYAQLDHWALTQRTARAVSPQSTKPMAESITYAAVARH
Chain of LAIR1 from rat (P0C1X9 22-263): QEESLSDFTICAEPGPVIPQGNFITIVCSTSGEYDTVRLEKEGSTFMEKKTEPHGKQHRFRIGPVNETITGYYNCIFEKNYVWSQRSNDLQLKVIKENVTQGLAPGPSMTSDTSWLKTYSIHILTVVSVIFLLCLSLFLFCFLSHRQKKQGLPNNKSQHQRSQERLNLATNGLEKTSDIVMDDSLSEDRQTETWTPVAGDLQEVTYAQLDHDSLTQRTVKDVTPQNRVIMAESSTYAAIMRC
Chain of human LAIR2 (Q6ISS4 22-152): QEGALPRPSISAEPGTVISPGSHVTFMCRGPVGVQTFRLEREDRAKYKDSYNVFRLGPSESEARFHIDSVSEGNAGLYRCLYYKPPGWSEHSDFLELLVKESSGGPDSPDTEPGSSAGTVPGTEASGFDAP

| Molecule | Kd [1] [nM] | binding result [2] | Kd [3] [nM] | binding result [4] | binding result [5] |
| --- | --- | --- | --- | --- | --- |
| recombinant cynomolgus monkey LAIR1-his (receptor) | 4.28 |  |  |  |  |
| NGM438, humanized IgG1 effector-less monoclonal antibody against LAIR1 (antibody, V domains shown) VH: EVQLVESGGGLVQPGGSLRLSCAASGFTFNINAMNWVRQAPGKGLEWVARIRTKNYNYATFYADSVKDRFTISRDDSKNSLYLQMNSLKTEDTAVYYCVRDRAGFFAYWGQGTTVTVSS VL: DIQMTQSPSSLSASVGDRVTITCLASQTIGTWLGWYQQKPGKAPKLLIYAATSLAEGVPSRFSGSGSGTDFTLTISSLQPEDFATYYCQQLYSTPLTFGGGTKVEIK |  | no binding | 0.26 ± 0.03 | no binding | no binding |

Source: paper PMC11293989 (Molecular cancer therapeutics, 2024)
